Assay [1] addresses HLA-A*02:01. In words: IEDB peptide-MHC binding, purified MHC/competitive/fluorescence; filed as Kd, often an IC50 or EC50 that approximates it; ≥ and ≤ were set here for values at or beyond the usual limits of such assays.
Assay [2] concerns the target HLA-A*02:03. The assay is described as above.
The target in assay [3] is HLA-A*02:06. Described as above.
Assay [4] addresses HLA-A*02:11. The assay is described as above.
The target of assay [5] is HLA-A*02:12. The assay is described as above.
The target in assay [6] is HLA-A*02:16. The assay is described as above.
Assay [7] deals with HLA-A*02:19. Described as above.
Assay [8] has as its target HLA-A*69:01. Described as above.
In assay [9] the target is HLA-A*32:07. The description is as above. As to conditions: source organism: West Nile virus.
Assay [10] concerns the target HLA-A*32:15. The assay is described as above. As to conditions: source organism: West Nile virus.
The target in assay [11] is HLA-A*68:23. Described as above. As to conditions: source organism: West Nile virus.
For assay [12], the target named is HLA-B*15:42. Described as above. As to conditions: source organism: West Nile virus.
Assay [13] deals with HLA-B*45:06. Described as above. As to conditions: source organism: West Nile virus.
The target of assay [14] is HLA-B*83:01. Described as above. As to conditions: source organism: West Nile virus.
For assay [15], the target named is HLA-A*02:01. In words: IEDB peptide-MHC binding, purified MHC/competitive/radioactivity; filed as Kd, often an IC50 or EC50 that approximates it; ≥ and ≤ were set here for values at or beyond the usual limits of such assays.
The target in assay [16] is HLA-A*02:03. Described as above.
In assay [17] the target is HLA-A*02:17. Described as above.
Assay [18] deals with HLA-C*12:03. Put plainly: IEDB peptide-MHC binding, purified MHC/direct/fluorescence; filed as Kd, often an IC50 or EC50 that approximates it; ≥ and ≤ were set here for values at or beyond the usual limits of such assays. As to conditions: source organism: Bacillus anthracis str. A0488.
In assay [19] the target is HLA-C*15:02. The assay is described as above.
The target of assay [20] is HLA-A*29:02. In words: IEDB peptide-MHC binding, purified MHC/competitive/fluorescence; filed as Kd, often an IC50 or EC50 that approximates it; ≥ and ≤ were set here for values at or beyond the usual limits of such assays.
Assay [21] addresses HLA-A*24:03. The description is as above.
For assay [22], the target named is HLA-A*26:01. The assay is described as above.
In assay [23] the target is HLA-A*68:02. Described as above.
In assay [24] the target is HLA-B*27:03. The description is as above.
Assay [25] concerns the target HLA-B*39:01. The description is as above.
In assay [26] the target is HLA-A*02:06. In words: IEDB peptide-MHC binding, purified MHC/competitive/radioactivity; filed as Kd, often an IC50 or EC50 that approximates it; ≥ and ≤ were set here for values at or beyond the usual limits of such assays.
For assay [27], the target named is HLA-B*08:01. The assay is described as above. As to conditions: source organism: Dengue virus 1 Brazil/97-11/1997.
In assay [28] the target is HLA-A*31:01. In words: IEDB peptide-MHC binding, purified MHC/competitive/fluorescence; filed as Kd, often an IC50 or EC50 that approximates it; ≥ and ≤ were set here for values at or beyond the usual limits of such assays. As to conditions: source organism: Escherichia coli 536.
Assay [29] deals with HLA-B*15:01. The assay is described as above.
For assay [30], the target named is HLA-B*18:01. Described as above.
Assay [31] concerns the target HLA-B*46:01. The assay is described as above.
Assay [32] concerns the target HLA-B*51:01. The assay is described as above.
The target of assay [33] is HLA-B*57:01. The description is as above.
Assay [34] has as its target HLA-A*03:01. Described as above. As to conditions: source organism: Cryptosporidium parvum Iowa II.
Assay [35] has as its target HLA-B*15:17. The description is as above. As to conditions: source organism: Cryptosporidium parvum Iowa II.
Where [36] appears, read: source organism: Human immunodeficiency virus 1.
Where [37] appears, read: source organism: Dengue virus 4 Philippines/H241/1956.
The mark [38] stands for this setting: source organism: Bacillus anthracis str. A0488.
Setting [39] is: source organism: Entamoeba histolytica HM-1:IMSS.
The mark [40] stands for this setting: source organism: Dengue virus 2 Jamaica/1409/1983.
Setting [41] is: source organism: Dengue virus 3 China/80-2/1980.
Where [42] appears, read: source organism: Dengue virus 1 Singapore/S275/1990.
Where [43] appears, read: source organism: Dengue virus 1 Brazil/97-11/1997.
Where [44] appears, read: source organism: Human herpesvirus 5 strain Towne.
The mark [45] stands for this setting: source organism: Escherichia coli 536.
[46] abbreviates: source organism: Cryptosporidium parvum Iowa II.

The term Kd denotes the constant that tells how readily two partners part at equilibrium.

Consider DLADQLIHL, for which the Kd in assay [1] (setting [36]) was found to be 178 nM; in assay [2] (setting [36]), 136 nM; in [3] (setting [36]), 59 nM; in assay [4] (setting [36]) it was 33 nM; in assay [5] (setting [36]) it was 476 nM; in assay [6] (setting [36]), 55.5 nM. In addition, the Kd in assay [7] (setting [36]) was 42.5 nM; in [8] (setting [36]) it was 19.8 nM.
With ETTNWLWTF, the equilibrium dissociation constant (Kd) in assay [9] was 1.7 nM; in assay [10], 18.5 nM; in assay [11] it was 2.2 nM; in assay [12], not below 5000 nM; in assay [13] it was not below 5000 nM; in assay [14], not below 5000 nM.
In the case of FMTATPPGA, the dissociation constant Kd was 49 nM in assay [15] (setting [37]), 152 nM in assay [16] (setting [37]) and 6440 nM in assay [17] (setting [37]).
In the case of FVFGIPLLV, the Kd is not above 1 nM in [18], 41 nM in assay [19] (setting [38]) and 0.2 nM in [20] (setting [38]).
For KLSMGLIAI, the results for the Kd in assay [15] (setting [37]), in assay [16] (setting [37]) and in assay [17] (setting [37]) were 12.4 nM, 31.4 nM and 2480 nM, respectively.
Take KTFEWGVFY: the Kd in assay [2] (setting [39]), in assay [5] (setting [39]), in assay [6] (setting [39]), in assay [7] (setting [39]), in assay [21] (setting [39]) and in [22] (setting [39]) was not below 20000 nM each time. The equilibrium dissociation constant (Kd) was 0.5 nM in assay [20] (setting [39]); not below 20000 nM in assay [23] (setting [39]); not below 20000 nM in assay [8] (setting [39]); not below 20000 nM in assay [24] (setting [39]); not below 20000 nM in assay [25] (setting [39]).
With KTIPVAMTL, the equilibrium dissociation constant (Kd) in assay [19] (source organism: Salmonella enterica subsp. enterica serovar Typhimurium str. LT2) was found to be 15 nM.
With LIFILLTAV, the Kd in [15] (setting [40]) amounted to 74.4 nM; in [16] (setting [40]), 56.2 nM; in [26] (setting [40]) it was 497 nM; in [17] (setting [40]) it was 3590 nM.
For LLLGLMILL, the results for the Kd in assay [15] (setting [41]) and in assay [17] (setting [41]) were 13.6 nM and 110 nM, respectively.
Consider LLMRTTWAL, for which the dissociation constant (Kd) is 21.4 nM in assay [15] (setting [42]); 0.817 nM in [16] (setting [43]); 1.43 nM in assay [26] (setting [43]); 4.89 nM in assay [17] (setting [42]); 20.7 nM in [27].
Take NLVPMVATV: the equilibrium dissociation constant (Kd) was not above 0.1 nM in assay [3] (setting [44]); not above 0.1 nM in assay [4] (setting [44]); 1.55 nM in assay [5] (setting [44]); 0.543 nM in assay [6] (setting [44]); 0.6 nM in assay [7] (setting [44]); 75 nM in assay [8] (setting [44]).
As to RVGIYFGMK, the equilibrium dissociation constant (Kd) in assay [1] (setting [45]), in assay [2] (setting [45]), in [4] (setting [45]), in assay [5] (setting [45]), in assay [6] (setting [45]) and in [7] (setting [45]) was not below 20000 nM each time. Also, the Kd is not below 20000 nM in assay [21] (setting [45]); not below 20000 nM in [22] (setting [45]); 45.6 nM in assay [28]; not below 20000 nM in [23] (setting [45]); not below 20000 nM in assay [8] (setting [45]); not below 20000 nM in assay [29] (setting [45]). Besides, the Kd in assay [30] (setting [45]), in assay [25] (setting [45]), in [31] (setting [45]), in [32] (setting [45]) and in [33] (setting [45]) was not below 20000 nM in each case.
Take TLLLLTLLAT: the Kd in assay [15] (setting [40]) stood at 141 nM; in assay [17] (setting [40]) it was 1320 nM.
Take VTNRHEEKF: the Kd in assay [19] (source organism: human gammaherpesvirus 4) was 4270 nM.
Take VYWENEVSI: the equilibrium dissociation constant (Kd) is not below 20000 nM in [1] (setting [46]); not below 20000 nM in assay [2] (setting [46]); not below 20000 nM in assay [4] (setting [46]); 286 nM in assay [5] (setting [46]); not below 20000 nM in assay [6] (setting [46]); not below 20000 nM in assay [7] (setting [46]). Besides, the Kd in assay [34], in assay [22] (setting [46]), in assay [20] (setting [46]), in [23] (setting [46]), in [8] (setting [46]) and in assay [29] (setting [46]) was not below 20000 nM each time. Also, the Kd in [35], in assay [30] (setting [46]), in [24] (setting [46]), in assay [25] (setting [46]), in assay [31] (setting [46]) and in assay [32] (setting [46]) was not below 20000 nM each time. For the same sequence, in assay [33] (setting [46]), the Kd was not below 20000 nM.
Turning to YMPTVIEEL, the dissociation constant (Kd) in assay [15] (setting [37]) was 39.6 nM; in assay [16] (setting [37]), 91.9 nM; in assay [26] (setting [37]) it was 46.9 nM; in assay [17] (setting [37]), 5.23 nM.

The values are drawn from the Immune Epitope Database (IEDB).
